{"source": "patent US6812377B2", "about": "“Genetic engineering of syringyl-enriched lignin in plants” (Board of Control of Michigan Technological University, priority 2000, dated 2004)", "molecules": {"B1": {"name": "recombinant PtSAD protein (Populus tremuloides) (protein)", "chain": "MSKSPEEEHPVKAFGWAARDQSGHLSPFNFSRRATGEEDVRFKVLYCGICHSDLHSIKNDWGFSMYPLVPGHEIVGEVTEVGSKVKKVNVGDKVGVGCLVGACHSCESCANDLENYCPKMILTYASIYHDGTITYGGYSDHMVANERYIIRFPDNMPLDGGAPLLCAGITVYSPLKYFGLDEPGKHIGIVGLGGLGHVAVKFAKAFGSKVTVISTSPSKKEEALKNFGADSFLVSRDQEQMQAAAGTLDGIIDTVSAVHPLLPLFGLLKSHGKLILVGAPEKPLELPAFSLIAGRKIVAGSGIGGMKETQEMIDFAAKHNITADIEVISTDYLNTAIERLAKNDVRYRFVIDVGNTLAATKP"}, "B2": {"name": "recombinant PtCAD protein (Populus tremuloides) (protein)", "chain": "MGSLETERKIVGWAATDSTGHLAPYTYSLRDTGPEDVLIKVISCGICHTDIHQIKNDLGMSHYPMVPGHEVVGEVVEVGSDVTKFKAGDVVGVGVIVGSCKNCHPCKSELEQYCNKKIWSYNDVYTDGKPTQGGFAESMVVDQKFVVRIPDGMSPEQAAPLLCAGLTVYSPLKHFGLKQSGLRGGILGLGGVGHMGVKIAKAMGHHVTVISSSDKKREEAMEHLGADEYLVSSDVESMQKAADQLDYIIDTVPVVHPLEPYLSLLKLDGKLILMGVINTPLQFVSPMVMLGRKSITGSFIGSMKETEEMLEFCKEKGLASMIEVIKMDYINTAFERLEKNDVRYRFVVDVAGSKLIP"}}, "key": {"[1]": {"target": "T1, recombinant PtCAD protein (Populus tremuloides, UniProt Q9M632)", "assay": "Kinetic properties of the recombinant PtCAD protein (HPLC-UV/MS)", "type": "biochemical", "conditions": "substrate of PtCAD; relative, coniferaldehyde = 100", "method": "(§1) To characterize the enzyme pH optima, the substrate and recombinant PtCAD or PtSAD protein concentrations described above were used in sodium phosphate buffers, pH 5 to 8.5. […] For inhibition kinetics, the PtCAD-mediated reduction of sinapaldehyde (1 to 200 μM) was assayed in the presence of 1 to 5 μM coniferaldehyde, and the PtSAD-catalyzed reduction of coniferaldehyde (1 to 200 μM) was assayed in the presence of 1 to 5 μM sinapaldehyde. All reactions were terminated by the addition of 10 μL of 6 N HCI (to bring the pH to 2) and 500 ng of internal standard o-coumaric acid and analyzed by HPLC-UV/MS. An aliquot of 100 μL of reaction mixture was injected directly onto a Supelcosil LC-ABZ column (15 cm×4.6 mm×5 μm; Supelco, Bellefonte, Pa.) with automatic sample injection and separated isocratically with a Hewlett-Packard (HP) 1100 liquid chromatography system at 40° C. and a flow rate of 0.25 mL/min. […] The reaction products were identified and confirmed by comparing the ion fragmentation patterns of the product and the authentic standard in MS scanning mode at 70 V. The product quantity and Km, Vmax, kcat, and apparent inhibition constant (Ki) values (means±SE) were determined as described (Osakabe et al., 1999; Li et al., 2000). The results of the inhibition kinetics for both the CAD enzyme (i.e. Table 2) and the SAD enzyme (i.e., Table 3) using a variety of substrates are illustrated below."}, "[2]": {"target": "recombinant PtSAD protein (Populus tremuloides, UniProt Q94G59)", "assay": "Kinetic properties of the recombinant PtSAD protein (HPLC-UV/MS)", "type": "biochemical", "conditions": "substrate of PtSAD; relative, sinapaldehyde = 100", "method": "as §1"}, "[3]": {"tested_on": "PtSAD recombinant protein", "assay": "SAD enzyme activity assay, single and mixed substrates (HPLC-MS)", "type": "biochemical, Populus tremuloides", "method": "After 10 min at 30° C., the reaction was terminated and extracted with 0.5 ml ethyl acetate. The extraction was repeated 4 times and the combined ethyl acetate was evaporated and dissolved in the HPLC mobile phase for LC-MS identification and quantitation of the reaction products as we did before (Osakabe et al., 1999; Li et al. 2000). […] The SAD reactions with mixed substrates, sinapaldehyde and coniferyl aldehyde, were therefore conducted at the optimal pH 7.0 under above-described conditions. […] To characterize the enzyme pH optima, the substrate and recombinant PtCAD or PtSAD protein concentrations described above were used in sodium phosphate buffers, pH 5 to 8.5. All reactions were for 10 minutes at 30° C. An aliquot of 100 μL of reaction mixture was injected directly onto a Supelcosil LC-ABZ column (15 cm×4.6 mm×5 μm; Supelco, Bellefonte, Pa.) with automatic sample injection and separated isocratically with a Hewlett-Packard (HP) 1100 liquid chromatography system at 40° C. and a flow rate of 0.25 mL/min. […] The reaction products were identified and confirmed by comparing the ion fragmentation patterns of the product and the authentic standard in MS scanning mode at 70 V. The product quantity and Km, Vmax, kcat, and apparent inhibition constant (Ki) values (means±SE) were determined as described (Osakabe et al., 1999; Li et al., 2000). The results of the inhibition kinetics for both the CAD enzyme (i.e. Table 2) and the SAD enzyme (i.e., Table 3) using a variety of substrates are illustrated below."}, "[4]": {"target": "T1, recombinant PtCAD protein", "assay": "PtCAD enzyme activity with a mixture of coniferaldehyde and sinapaldehyde (HPLC-MS)", "type": "biochemical", "description": "A guaiacyl pathway gene encoding coniferyl alcohol dehydrogenase (CAD, FIG. 1) from Populus tremuloides (GenBank #AF217957) was first cloned. This cDNA was designated as PtCAD (GenBank #AF217957). E. coli-expressed recombinant PtCAD protein was characterized for its catalytic activity with coniferaldehyde and sinapaldehyde. Because monolignol biosynthetic pathway intermediates are present together in lignifying tissues (Osakabe et al., 1999; Li et al. 2000), the PtCAD enzyme activity with a mixture of coniferaldehyde and sinapaldehyde was assayed. As shown in FIG. 5 (a) and (c), the reaction mixture was separated by HPLC after the enzyme reaction. […]\nAn aliquot of 100 μL of reaction mixture was injected directly onto a Supelcosil LC-ABZ column (15 cm×4.6 mm×5 μm; Supelco, Bellefonte, Pa.) with automatic sample injection and separated isocratically with a Hewlett-Packard (HP) 1100 liquid chromatography system at 40° C. and a flow rate of 0.25 mL/min. […] The reaction products were identified and confirmed by comparing the ion fragmentation patterns of the product and the authentic standard in MS scanning mode at 70 V. The product quantity and Km, Vmax, kcat, and apparent inhibition constant (Ki) values (means±SE) were determined as described (Osakabe et al., 1999; Li et al., 2000). […]"}, "[5]": {"substrate": "COc1cc(/C=C/C=O)cc(O)c1O", "assay": "Kinetic properties of the recombinant PtSAD protein (HPLC-UV/MS)", "type": "biochemical, Populus tremuloides", "conditions": "other: substrate of PtSAD, pH 7.0, 4 min, 30° C., NADPH, means of three independent assays"}, "[6]": {"substrate": "COc1cc(/C=C/C=O)cc(OC)c1O", "assay": "Kinetic properties of the recombinant PtSAD protein (HPLC-UV/MS)", "type": "biochemical, Populus tremuloides", "conditions": "other: substrate of PtSAD, pH 7.0, 4 min, 30° C., NADPH, means of three independent assays"}, "[7]": {"substrate": "COc1cc(/C=C/C=O)ccc1O", "assay": "Kinetic properties of the recombinant PtSAD protein (HPLC-UV/MS)", "type": "biochemical, Populus tremuloides", "conditions": "other: substrate of PtSAD, pH 7.0, 4 min, 30° C., NADPH, means of three independent assays"}, "[8]": {"substrate": "O=C/C=C/c1ccc(O)c(O)c1", "assay": "Kinetic properties of the recombinant PtSAD protein (HPLC-UV/MS)", "type": "biochemical, Populus tremuloides", "conditions": "other: substrate of PtSAD, pH 7.0, 4 min, 30° C., NADPH, means of three independent assays"}, "[9]": {"substrate": "O=C/C=C/c1ccc(O)cc1", "assay": "Kinetic properties of the recombinant PtSAD protein (HPLC-UV/MS)", "type": "biochemical, Populus tremuloides", "conditions": "other: substrate of PtSAD, pH 7.0, 4 min, 30° C., NADPH, means of three independent assays"}, "[10]": {"substrate": "COc1cc(/C=C/C=O)cc(O)c1O", "assay": "Kinetic properties of the recombinant PtCAD protein (HPLC-UV/MS)", "type": "biochemical, Populus tremuloides", "conditions": "other: substrate of PtCAD, pH 8.0, 4 min, 30° C., NADPH, means of three independent assays", "method": "as §1"}, "[11]": {"substrate": "COc1cc(/C=C/C=O)cc(OC)c1O", "assay": "Kinetic properties of the recombinant PtCAD protein (HPLC-UV/MS)", "type": "biochemical, Populus tremuloides", "conditions": "other: substrate of PtCAD, pH 8.0, 4 min, 30° C., NADPH, means of three independent assays", "method": "as §1"}, "[12]": {"substrate": "COc1cc(/C=C/C=O)ccc1O", "assay": "Kinetic properties of the recombinant PtCAD protein (HPLC-UV/MS)", "type": "biochemical, Populus tremuloides", "conditions": "other: substrate of PtCAD, pH 8.0, 4 min, 30° C., NADPH, means of three independent assays", "method": "as §1"}, "[13]": {"substrate": "O=C/C=C/c1ccc(O)c(O)c1", "assay": "Kinetic properties of the recombinant PtCAD protein (HPLC-UV/MS)", "type": "biochemical, Populus tremuloides", "conditions": "other: substrate of PtCAD, pH 8.0, 4 min, 30° C., NADPH, means of three independent assays", "method": "as §1"}, "[14]": {"substrate": "O=C/C=C/c1ccc(O)cc1", "assay": "Kinetic properties of the recombinant PtCAD protein (HPLC-UV/MS)", "type": "biochemical, Populus tremuloides", "conditions": "other: substrate of PtCAD, pH 8.0, 4 min, 30° C., NADPH, means of three independent assays", "method": "as §1"}}, "data": [{"molecule": "COc1cc(/C=C/C=O)cc(OC)c1O", "note": "[Sinapaldehyde]", "values": [{"measurement": "Vmax/Km", "setting": "[1]", "result": 12.0, "unit": "%"}, {"measurement": "Vmax/Km", "setting": "[2]", "result": 100, "unit": "%"}, {"measurement": "reaction of PtSAD with the substrate in a mixture", "setting": "[3]; mixture of coniferaldehyde and sinapaldehyde, pH 7.0", "result": "sinapyl alcohol is the exclusive product"}, {"measurement": "catalytic efficiency of PtSAD with sinapaldehyde versus coniferaldehyde", "setting": "[3]; ratio of specific activities", "result": 9, "unit": "times"}, {"measurement": "reaction of PtCAD with the substrate in a mixture", "setting": "[4]", "result": "no reaction"}]}, {"molecule": "O=C/C=C/c1ccc(O)cc1", "note": "[p-Coumaraldehyde]", "values": [{"measurement": "Vmax/Km", "setting": "[1]", "result": 30.1, "unit": "%"}, {"measurement": "Vmax/Km", "setting": "[2]", "result": 27.4, "unit": "%"}]}, {"molecule": "COc1cc(/C=C/C=O)cc(O)c1O", "note": "[5-Hydroxyconiferaldehyde]", "values": [{"measurement": "Vmax/Km", "setting": "[1]", "result": 10.6, "unit": "%"}, {"measurement": "Vmax/Km", "setting": "[2]", "result": 15.5, "unit": "%"}]}, {"molecule": "O=C/C=C/c1ccc(O)c(O)c1", "note": "[Caffealdehyde]", "values": [{"measurement": "Vmax/Km", "setting": "[1]", "result": 4.4, "unit": "%"}, {"measurement": "Vmax/Km", "setting": "[2]", "result": 2.2, "unit": "%"}]}, {"molecule": "B1", "values": [{"measurement": "Km", "setting": "[5]", "result": 36.1, "unit": "µM"}, {"measurement": "Vmax", "setting": "[5]", "result": 3.8, "unit": "µmol/min/mg"}, {"measurement": "kcat", "setting": "[5]", "result": 2.53, "unit": "s⁻¹"}, {"measurement": "Km", "setting": "[6]", "result": 7.4, "unit": "µM"}, {"measurement": "Vmax", "setting": "[6]", "result": 5, "unit": "µmol/min/mg"}, {"measurement": "kcat", "setting": "[6]", "result": 3.33, "unit": "s⁻¹"}, {"measurement": "Km", "setting": "[7]", "result": 12.7, "unit": "µM"}, {"measurement": "Vmax", "setting": "[7]", "result": 2.3, "unit": "µmol/min/mg"}, {"measurement": "kcat", "setting": "[7]", "result": 1.53, "unit": "s⁻¹"}, {"measurement": "Km", "setting": "[8]", "result": 140.0, "unit": "µM"}, {"measurement": "Vmax", "setting": "[8]", "result": 2, "unit": "µmol/min/mg"}, {"measurement": "kcat", "setting": "[8]", "result": 1.33, "unit": "s⁻¹"}, {"measurement": "Km", "setting": "[9]", "result": 15.6, "unit": "µM"}, {"measurement": "Vmax", "setting": "[9]", "result": 2.9, "unit": "µmol/min/mg"}, {"measurement": "kcat", "setting": "[9]", "result": 1.93, "unit": "s⁻¹"}]}, {"molecule": "B2", "values": [{"measurement": "Km", "setting": "[10]", "result": 17.5, "unit": "µM"}, {"measurement": "Vmax", "setting": "[10]", "result": 0.17, "unit": "µmol/min/mg"}, {"measurement": "kcat", "setting": "[10]", "result": 0.113, "unit": "s⁻¹"}, {"measurement": "Km", "setting": "[11]", "result": 9.1, "unit": "µM"}, {"measurement": "Vmax", "setting": "[11]", "result": 0.1, "unit": "µmol/min/mg"}, {"measurement": "kcat", "setting": "[11]", "result": 0.0667, "unit": "s⁻¹"}, {"measurement": "Km", "setting": "[12]", "result": 2.3, "unit": "µM"}, {"measurement": "Vmax", "setting": "[12]", "result": 0.21, "unit": "µmol/min/mg"}, {"measurement": "kcat", "setting": "[12]", "result": 0.14, "unit": "s⁻¹"}, {"measurement": "Km", "setting": "[13]", "result": 37.0, "unit": "µM"}, {"measurement": "Vmax", "setting": "[13]", "result": 0.15, "unit": "µmol/min/mg"}, {"measurement": "kcat", "setting": "[13]", "result": 0.1, "unit": "s⁻¹"}, {"measurement": "Km", "setting": "[14]", "result": 6.2, "unit": "µM"}, {"measurement": "Vmax", "setting": "[14]", "result": 0.17, "unit": "µmol/min/mg"}, {"measurement": "kcat", "setting": "[14]", "result": 0.113, "unit": "s⁻¹"}]}]}
